# System: Escherichia coli TOP10
# Test: shrunken log2 fold change of peptide-encoding DNA abundance (4.5 h post-induction vs induction); higher = less antimicrobial activity (less host growth inhibition)
# Conditions: time post-induction: 4.5 h; library: site-saturation at positions 5, 18, 19, 20
# 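Also: peptides expressed intracellularly from a pBAD plasmid library in pooled LB shake-flask culture, induced with 0.3% L-arabinose, DNA abundance read by NGS, three biological replicates, DESeq2 with apeglm shrinkage.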
row,Sequence,shrunken log2 fold change
1,RRIRSRPPRLPRPRPRPDTKPRP,-0.248
2,RRIRSRPPRLPRPRPRPDTLPRP,-0.126
3,RRIRSRPPRLPRPRPRPDTYPRP,-0.713
4,RRIRSRPPRLPRPRPRPDVMPRP,-0.0117
5,RRIRSRPPRLPRPRPRPDVSPRP,-0.0357
6,RRIRSRPPRLPRPRPRPDWGPRP,-0.128
7,RRIRSRPPRLPRPRPRPDWWPRP,-0.0873
8,RRIRSRPPRLPRPRPRPDYKPRP,-0.722
9,RRIRSRPPRLPRPRPRPDYTPRP,-0.342
10,RRIRSRPPRLPRPRPRPEAMPRP,1.09
11,RRIRSRPPRLPRPRPRPEARPRP,0.292
12,RRIRSRPPRLPRPRPRPEASPRP,0.715
13,RRIRSRPPRLPRPRPRPECCPRP,0.21
14,RRIRSRPPRLPRPRPRPECWPRP,1.03
15,RRIRSRPPRLPRPRPRPEEFPRP,-0.00122
16,RRIRSRPPRLPRPRPRPEEQPRP,0.64
17,RRIRSRPPRLPRPRPRPEFMPRP,0.135
18,RRIRSRPPRLPRPRPRPEFYPRP,-0.131
19,RRIRSRPPRLPRPRPRPEGAPRP,1.95
20,RRIRSRPPRLPRPRPRPEGGPRP,0.325
21,RRIRSRPPRLPRPRPRPEGPPRP,0.114
22,RRIRSRPPRLPRPRPRPEHQPRP,0.163
23,RRIRSRPPRLPRPRPRPEIWPRP,0.456
24,RRIRSRPPRLPRPRPRPEKIPRP,-0.0469
25,RRIRSRPPRLPRPRPRPEKMPRP,0.061

row,Sequence,shrunken log2 fold change
1,RRIRSRPPRLPRPRPRPEKTPRP,0.125
2,RRIRSRPPRLPRPRPRPEKVPRP,-0.1
3,RRIRSRPPRLPRPRPRPELHPRP,0.249
4,RRIRSRPPRLPRPRPRPELIPRP,-0.123
5,RRIRSRPPRLPRPRPRPEMLPRP,0.536
6,RRIRSRPPRLPRPRPRPEMVPRP,0.0797
7,RRIRSRPPRLPRPRPRPENRPRP,-0.114
8,RRIRSRPPRLPRPRPRPENVPRP,0.0202
9,RRIRSRPPRLPRPRPRPEPPPRP,0.662
10,RRIRSRPPRLPRPRPRPEPRPRP,0.586
11,RRIRSRPPRLPRPRPRPESRPRP,-0.0244
12,RRIRSRPPRLPRPRPRPETWPRP,-0.0382
13,RRIRSRPPRLPRPRPRPEVYPRP,0.104
14,RRIRSRPPRLPRPRPRPEWYPRP,0.341
15,RRIRSRPPRLPRPRPRPEYGPRP,-0.346
16,RRIRSRPPRLPRPRPRPFANPRP,-0.0026
17,RRIRSRPPRLPRPRPRPFATPRP,0.461
18,RRIRSRPPRLPRPRPRPFEGPRP,0.123
19,RRIRSRPPRLPRPRPRPFERPRP,-0.00192
20,RRIRSRPPRLPRPRPRPFESPRP,-0.258
21,RRIRSRPPRLPRPRPRPFEYPRP,-0.115
22,RRIRSRPPRLPRPRPRPFFDPRP,0.192
23,RRIRSRPPRLPRPRPRPFFRPRP,-0.0536
24,RRIRSRPPRLPRPRPRPFGPPRP,0.132
25,RRIRSRPPRLPRPRPRPFHGPRP,-0.00545

row,Sequence,shrunken log2 fold change
1,RRIRSRPPRLPRPRPRPFHQPRP,-0.418
2,RRIRSRPPRLPRPRPRPFHRPRP,-0.154
3,RRIRSRPPRLPRPRPRPFHYPRP,-0.429
4,RRIRSRPPRLPRPRPRPFIEPRP,-0.285
5,RRIRSRPPRLPRPRPRPFKGPRP,0.112
6,RRIRSRPPRLPRPRPRPFKIPRP,-0.466
7,RRIRSRPPRLPRPRPRPFKQPRP,-0.468
8,RRIRSRPPRLPRPRPRPFLHPRP,-0.174
9,RRIRSRPPRLPRPRPRPFMCPRP,-0.255
10,RRIRSRPPRLPRPRPRPFMPPRP,-0.149
11,RRIRSRPPRLPRPRPRPFMSPRP,0.00606
12,RRIRSRPPRLPRPRPRPFNYPRP,0.0477
13,RRIRSRPPRLPRPRPRPFPIPRP,0.0325
14,RRIRSRPPRLPRPRPRPFQEPRP,-0.0528
15,RRIRSRPPRLPRPRPRPFQNPRP,-0.3
16,RRIRSRPPRLPRPRPRPFQYPRP,-0.177
17,RRIRSRPPRLPRPRPRPFSDPRP,-0.126
18,RRIRSRPPRLPRPRPRPFTEPRP,-0.0824
19,RRIRSRPPRLPRPRPRPFTHPRP,-0.0568
20,RRIRSRPPRLPRPRPRPFTNPRP,-0.0617
21,RRIRSRPPRLPRPRPRPFWEPRP,0.0122
22,RRIRSRPPRLPRPRPRPFWWPRP,0.309
23,RRIRSRPPRLPRPRPRPFYYPRP,-0.615
24,RRIRSRPPRLPRPRPRPGAKPRP,0.513
25,RRIRSRPPRLPRPRPRPGALPRP,0.324

row,Sequence,shrunken log2 fold change
1,RRIRSRPPRLPRPRPRPGARPRP,0.492
2,RRIRSRPPRLPRPRPRPGCDPRP,0.332
3,RRIRSRPPRLPRPRPRPGCKPRP,-0.00169
4,RRIRSRPPRLPRPRPRPGCMPRP,0.0917
5,RRIRSRPPRLPRPRPRPGDHPRP,-0.338
6,RRIRSRPPRLPRPRPRPGEPPRP,-0.054
7,RRIRSRPPRLPRPRPRPGFNPRP,-0.038
8,RRIRSRPPRLPRPRPRPGHTPRP,0.0898
9,RRIRSRPPRLPRPRPRPGIDPRP,-0.0173
10,RRIRSRPPRLPRPRPRPGIQPRP,0.0642
11,RRIRSRPPRLPRPRPRPGKAPRP,0.188
12,RRIRSRPPRLPRPRPRPGMVPRP,0.23
13,RRIRSRPPRLPRPRPRPGPYPRP,-0.325
14,RRIRSRPPRLPRPRPRPGREPRP,0.325
15,RRIRSRPPRLPRPRPRPGRMPRP,0.167
16,RRIRSRPPRLPRPRPRPGSGPRP,0.32
17,RRIRSRPPRLPRPRPRPGVGPRP,0.617
18,RRIRSRPPRLPRPRPRPGVVPRP,0.295
19,RRIRSRPPRLPRPRPRPGVYPRP,-0.0749
20,RRIRSRPPRLPRPRPRPGWNPRP,0.0897
21,RRIRSRPPRLPRPRPRPHAPPRP,0.27
22,RRIRSRPPRLPRPRPRPHAQPRP,0.0587
23,RRIRSRPPRLPRPRPRPHDFPRP,-0.0847
24,RRIRSRPPRLPRPRPRPHEDPRP,0.132
25,RRIRSRPPRLPRPRPRPHEGPRP,0.0242

row,Sequence,shrunken log2 fold change
1,RRIRSRPPRLPRPRPRPHFEPRP,-0.325
2,RRIRSRPPRLPRPRPRPHFKPRP,-0.383
3,RRIRSRPPRLPRPRPRPHGHPRP,-0.167
4,RRIRSRPPRLPRPRPRPHGPPRP,-0.0864
5,RRIRSRPPRLPRPRPRPHHCPRP,-0.0623
6,RRIRSRPPRLPRPRPRPHIKPRP,-0.255
7,RRIRSRPPRLPRPRPRPHIMPRP,-0.393
8,RRIRSRPPRLPRPRPRPHKDPRP,-0.534
9,RRIRSRPPRLPRPRPRPHKHPRP,-0.411
10,RRIRSRPPRLPRPRPRPHKQPRP,-0.0702
11,RRIRSRPPRLPRPRPRPHKVPRP,-0.259
12,RRIRSRPPRLPRPRPRPHLNPRP,-0.158
13,RRIRSRPPRLPRPRPRPHLRPRP,0.092
14,RRIRSRPPRLPRPRPRPHLTPRP,-0.0599
15,RRIRSRPPRLPRPRPRPHMCPRP,-0.425
16,RRIRSRPPRLPRPRPRPHMIPRP,-0.961
17,RRIRSRPPRLPRPRPRPHMYPRP,-0.37
18,RRIRSRPPRLPRPRPRPHNVPRP,-0.436
19,RRIRSRPPRLPRPRPRPHNYPRP,-0.372
20,RRIRSRPPRLPRPRPRPHQAPRP,-0.161
21,RRIRSRPPRLPRPRPRPHQNPRP,-0.0421
22,RRIRSRPPRLPRPRPRPHQTPRP,-0.066
23,RRIRSRPPRLPRPRPRPHRNPRP,-0.489
24,RRIRSRPPRLPRPRPRPHSGPRP,0.0329
25,RRIRSRPPRLPRPRPRPHSLPRP,0.0616

row,Sequence,shrunken log2 fold change
1,RRIRSRPPRLPRPRPRPHSQPRP,0.0681
2,RRIRSRPPRLPRPRPRPHVDPRP,-0.0165
3,RRIRSRPPRLPRPRPRPHYGPRP,-0.00176
4,RRIRSRPPRLPRPRPRPIAMPRP,-0.127
5,RRIRSRPPRLPRPRPRPIAWPRP,-0.0861
6,RRIRSRPPRLPRPRPRPICTPRP,0.166
7,RRIRSRPPRLPRPRPRPIDEPRP,0.0325
8,RRIRSRPPRLPRPRPRPIDIPRP,-0.3
9,RRIRSRPPRLPRPRPRPIEVPRP,0.0392
10,RRIRSRPPRLPRPRPRPIFNPRP,-0.317
11,RRIRSRPPRLPRPRPRPIFRPRP,0.0112
12,RRIRSRPPRLPRPRPRPIGMPRP,-0.35
13,RRIRSRPPRLPRPRPRPIHHPRP,-0.362
14,RRIRSRPPRLPRPRPRPIHNPRP,-0.415
15,RRIRSRPPRLPRPRPRPIIAPRP,-0.0683
16,RRIRSRPPRLPRPRPRPIIGPRP,-0.276
17,RRIRSRPPRLPRPRPRPIIIPRP,-0.159
18,RRIRSRPPRLPRPRPRPIIPPRP,-0.188
19,RRIRSRPPRLPRPRPRPIKCPRP,-0.0332
20,RRIRSRPPRLPRPRPRPIMFPRP,-0.304
21,RRIRSRPPRLPRPRPRPINTPRP,-0.648
22,RRIRSRPPRLPRPRPRPIQMPRP,-0.103
23,RRIRSRPPRLPRPRPRPIRFPRP,-0.964
24,RRIRSRPPRLPRPRPRPIRNPRP,-0.379
25,RRIRSRPPRLPRPRPRPISAPRP,-0.256
